From publication PMC6706699 (Developmental Cell, 2019)
Square brackets hold non-standard residues; d marks the D form. Ends that are not written are not given here. pT = C[C@@H](OP(=O)(O)O)[C@H](N)C(=O)O

Experiments:
[1] = target: Recombinant T156-phosphorylated AP2 core (UniProt P18484); assay: ITC; Nano ITC, 10°C, 100 mM TRIS pH 8, 250 mM NaCl, 0.25 mM TCEP; 0.05-0.1 mM Pcore in the cell, 2-3 mM PHear titrated in
[2] = target: μ2T156-phosphorylated AP2, endogenous in RPE cells (human (endogenous in RPE)) (UniProt O95782); assay: co-IP; native co-immunoprecipitation with anti-AP2α antibody AP6 on protein G-Sepharose from RPE cell lysates (0.1% NP40), overnight at 4°C; western blot
[3] = target: NECAP1 PHear domain, 1-133 (UniProt Q8NC96); assay: ITC; settings: reference: unphosphorylated peptide …; sites T156
[4] = target: TGN38 cytoplasmic domain peptide, lipid-linked, in PtdIns4,5P2 liposomes; assay: SPR; BIAcore T200, liposomes (PC/PE with 4% PtdIns4,5P2 and 2% lipid-linked peptide) on an L1 sensor; core or Pcore injected at 50 nM to 50 μM; 10 mM Tris pH 8.7, 250 mM NaCl, 1 mM DTT; apparent constants from fast and slow dissociation amplitudes
[5] = target: NECAP1 PHear domain (NECAP 1-133), wild type (UniProt Q8NC96); assay: ITC; Nano ITC, 12°C, 75 mM HEPES pH 7.4, 0.25 mM TCEP; PHear domains in the cell, peptides at 1-5 mM titrated in
[6] = target: T1, NECAP1 PHear (1-133) R102A (UniProt Q8NC96 1-133, R102A); assay: ITC
T1 sequence: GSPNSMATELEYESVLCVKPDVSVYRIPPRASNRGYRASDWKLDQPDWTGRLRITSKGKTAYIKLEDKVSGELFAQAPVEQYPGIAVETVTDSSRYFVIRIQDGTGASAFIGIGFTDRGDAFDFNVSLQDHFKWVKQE

[7] = target: T2, NECAP1 PHear (1-133) R32D (UniProt Q8NC96 1-133, R32D); assay: ITC; Nano ITC, 12°C, 75 mM HEPES pH 7.4, 0.25 mM TCEP; PHear domains in the cell, peptides at 1-5 mM titrated in; settings: both partners purified
T2 construct: NECAP1 PHear domain, residues 1-133; Not in the plasmid list; source: E. coli BL21DE3 pLysS, purified (GST sepharose, thrombin cleavage, gel filtration); not shown: GST, N-terminal, cleaved
T2 sequence: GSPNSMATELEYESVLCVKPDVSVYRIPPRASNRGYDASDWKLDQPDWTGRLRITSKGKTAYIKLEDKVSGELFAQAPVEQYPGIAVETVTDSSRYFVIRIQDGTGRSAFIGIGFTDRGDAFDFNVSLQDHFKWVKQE

[8] = target: T3, NECAP1 PHear (1-133) S88A (UniProt Q8NC96 1-133, S88A); assay: as above; settings: both partners purified
T3 construct: NECAP1 PHear domain, residues 1-133; source: E. coli BL21DE3 pLysS, purified (GST sepharose, thrombin cleavage, gel filtration); not shown: GST, N-terminal, cleaved
T3 sequence: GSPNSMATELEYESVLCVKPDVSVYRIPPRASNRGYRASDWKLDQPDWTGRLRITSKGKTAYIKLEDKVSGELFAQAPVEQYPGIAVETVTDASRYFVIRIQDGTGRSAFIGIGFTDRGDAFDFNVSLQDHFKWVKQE

[9] = target: T4, NECAP1 PHear (1-133) R102A (UniProt Q8NC96 1-133, R102A); assay: as above; settings: both partners purified
T4 construct: NECAP1 PHear domain, residues 1-133; source: E. coli BL21DE3 pLysS, purified (GST sepharose, thrombin cleavage, gel filtration); not shown: GST, N-terminal, cleaved
T4 sequence: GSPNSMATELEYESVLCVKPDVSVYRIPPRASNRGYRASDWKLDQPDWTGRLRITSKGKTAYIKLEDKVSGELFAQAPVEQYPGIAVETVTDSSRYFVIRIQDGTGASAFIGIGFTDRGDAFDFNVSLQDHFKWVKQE

[10] = target: T5, NECAP1 PHear (1-133) S88A (UniProt Q8NC96 1-133, S88A); assay: ITC
T5 sequence: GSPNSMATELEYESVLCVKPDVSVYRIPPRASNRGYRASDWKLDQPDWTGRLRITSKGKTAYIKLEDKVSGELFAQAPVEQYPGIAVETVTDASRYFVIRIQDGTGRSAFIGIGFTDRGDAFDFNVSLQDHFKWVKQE

[11] = target: T6, NECAP1 PHear (1-133) R32D (UniProt Q8NC96 1-133, R32D); assay: ITC
T6 sequence: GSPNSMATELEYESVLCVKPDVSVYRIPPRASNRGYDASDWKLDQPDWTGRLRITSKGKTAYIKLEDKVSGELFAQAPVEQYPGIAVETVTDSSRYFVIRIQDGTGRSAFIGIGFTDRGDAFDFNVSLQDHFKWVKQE

[12] = target: T7, NECAP1 PHear domain (NECAP 1-133), wild type (UniProt Q8NC96 1-133); assay: ITC; + FxDxF peptide
T7 chain: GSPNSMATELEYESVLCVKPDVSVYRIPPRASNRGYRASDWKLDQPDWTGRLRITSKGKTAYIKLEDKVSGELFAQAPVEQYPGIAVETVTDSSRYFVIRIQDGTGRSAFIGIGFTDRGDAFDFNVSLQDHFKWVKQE

Chain of Recombinant T156-phosphorylated AP2 core (UniProt P18484) (P18484 whole entry, chain 1 of 4): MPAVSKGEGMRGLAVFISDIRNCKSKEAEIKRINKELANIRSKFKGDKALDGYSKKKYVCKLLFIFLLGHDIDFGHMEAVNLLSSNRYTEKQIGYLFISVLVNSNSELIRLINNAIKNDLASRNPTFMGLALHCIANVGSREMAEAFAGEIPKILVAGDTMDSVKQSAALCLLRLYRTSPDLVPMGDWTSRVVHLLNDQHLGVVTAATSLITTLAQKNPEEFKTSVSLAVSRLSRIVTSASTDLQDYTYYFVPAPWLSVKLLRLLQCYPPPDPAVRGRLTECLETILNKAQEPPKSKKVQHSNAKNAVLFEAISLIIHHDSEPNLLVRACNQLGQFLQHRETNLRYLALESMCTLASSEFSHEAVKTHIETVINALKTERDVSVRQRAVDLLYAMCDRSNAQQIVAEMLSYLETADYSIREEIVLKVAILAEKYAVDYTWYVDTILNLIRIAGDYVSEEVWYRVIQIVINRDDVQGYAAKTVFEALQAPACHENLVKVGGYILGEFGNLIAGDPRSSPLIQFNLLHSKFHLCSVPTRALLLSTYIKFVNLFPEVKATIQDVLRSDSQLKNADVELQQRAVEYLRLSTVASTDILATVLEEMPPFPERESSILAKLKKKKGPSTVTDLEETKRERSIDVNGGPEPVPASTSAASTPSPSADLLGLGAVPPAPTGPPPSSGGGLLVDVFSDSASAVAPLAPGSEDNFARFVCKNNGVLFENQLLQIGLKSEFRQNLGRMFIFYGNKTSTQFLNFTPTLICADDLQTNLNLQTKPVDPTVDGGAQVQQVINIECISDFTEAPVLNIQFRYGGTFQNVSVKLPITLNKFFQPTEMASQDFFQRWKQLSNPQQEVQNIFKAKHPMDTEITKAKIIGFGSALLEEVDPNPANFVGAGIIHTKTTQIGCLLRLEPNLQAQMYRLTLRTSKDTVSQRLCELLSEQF
Chain of Recombinant T156-phosphorylated AP2 core (UniProt P18484) (P63010 1-592, chain 2 of 4, further chain): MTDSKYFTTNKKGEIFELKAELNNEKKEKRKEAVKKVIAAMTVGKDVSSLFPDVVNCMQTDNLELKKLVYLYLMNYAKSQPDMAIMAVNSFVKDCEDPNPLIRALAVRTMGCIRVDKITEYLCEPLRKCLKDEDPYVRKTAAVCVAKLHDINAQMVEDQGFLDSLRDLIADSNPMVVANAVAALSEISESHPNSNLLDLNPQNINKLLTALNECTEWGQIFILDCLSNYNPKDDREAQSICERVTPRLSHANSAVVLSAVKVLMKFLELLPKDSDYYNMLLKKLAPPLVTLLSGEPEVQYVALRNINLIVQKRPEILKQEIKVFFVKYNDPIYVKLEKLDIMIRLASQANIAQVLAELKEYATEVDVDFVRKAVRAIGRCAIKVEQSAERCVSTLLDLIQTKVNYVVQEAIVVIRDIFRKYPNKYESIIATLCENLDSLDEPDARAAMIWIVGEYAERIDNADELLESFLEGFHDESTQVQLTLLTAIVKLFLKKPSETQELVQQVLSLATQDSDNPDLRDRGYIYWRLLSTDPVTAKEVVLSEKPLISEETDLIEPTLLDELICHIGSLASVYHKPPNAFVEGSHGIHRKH
Chain of Recombinant T156-phosphorylated AP2 core (UniProt P18484) (P84092 whole entry, chain 3 of 4, further chain): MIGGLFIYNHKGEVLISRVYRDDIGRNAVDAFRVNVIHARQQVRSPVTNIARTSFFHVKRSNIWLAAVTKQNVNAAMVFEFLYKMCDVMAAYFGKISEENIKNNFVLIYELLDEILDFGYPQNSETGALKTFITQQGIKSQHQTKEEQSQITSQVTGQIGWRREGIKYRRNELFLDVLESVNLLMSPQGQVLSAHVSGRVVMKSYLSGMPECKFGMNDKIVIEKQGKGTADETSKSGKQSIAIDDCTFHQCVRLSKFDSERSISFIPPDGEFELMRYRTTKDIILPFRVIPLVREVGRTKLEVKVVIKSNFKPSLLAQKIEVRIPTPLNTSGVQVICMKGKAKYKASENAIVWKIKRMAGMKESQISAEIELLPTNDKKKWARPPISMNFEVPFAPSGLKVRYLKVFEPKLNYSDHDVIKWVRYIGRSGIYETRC
Chain of Recombinant T156-phosphorylated AP2 core (UniProt P18484) (P62743 whole entry, chain 4 of 4, further chain): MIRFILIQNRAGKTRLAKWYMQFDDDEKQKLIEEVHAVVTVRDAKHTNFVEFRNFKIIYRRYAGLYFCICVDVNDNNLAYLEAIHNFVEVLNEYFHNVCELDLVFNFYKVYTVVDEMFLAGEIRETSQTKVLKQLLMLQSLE
Chain of μ2T156-phosphorylated AP2, endogenous in RPE cells (human (endogenous in RPE)) (O95782 whole entry, chain 1 of 4, the tested form may be a part): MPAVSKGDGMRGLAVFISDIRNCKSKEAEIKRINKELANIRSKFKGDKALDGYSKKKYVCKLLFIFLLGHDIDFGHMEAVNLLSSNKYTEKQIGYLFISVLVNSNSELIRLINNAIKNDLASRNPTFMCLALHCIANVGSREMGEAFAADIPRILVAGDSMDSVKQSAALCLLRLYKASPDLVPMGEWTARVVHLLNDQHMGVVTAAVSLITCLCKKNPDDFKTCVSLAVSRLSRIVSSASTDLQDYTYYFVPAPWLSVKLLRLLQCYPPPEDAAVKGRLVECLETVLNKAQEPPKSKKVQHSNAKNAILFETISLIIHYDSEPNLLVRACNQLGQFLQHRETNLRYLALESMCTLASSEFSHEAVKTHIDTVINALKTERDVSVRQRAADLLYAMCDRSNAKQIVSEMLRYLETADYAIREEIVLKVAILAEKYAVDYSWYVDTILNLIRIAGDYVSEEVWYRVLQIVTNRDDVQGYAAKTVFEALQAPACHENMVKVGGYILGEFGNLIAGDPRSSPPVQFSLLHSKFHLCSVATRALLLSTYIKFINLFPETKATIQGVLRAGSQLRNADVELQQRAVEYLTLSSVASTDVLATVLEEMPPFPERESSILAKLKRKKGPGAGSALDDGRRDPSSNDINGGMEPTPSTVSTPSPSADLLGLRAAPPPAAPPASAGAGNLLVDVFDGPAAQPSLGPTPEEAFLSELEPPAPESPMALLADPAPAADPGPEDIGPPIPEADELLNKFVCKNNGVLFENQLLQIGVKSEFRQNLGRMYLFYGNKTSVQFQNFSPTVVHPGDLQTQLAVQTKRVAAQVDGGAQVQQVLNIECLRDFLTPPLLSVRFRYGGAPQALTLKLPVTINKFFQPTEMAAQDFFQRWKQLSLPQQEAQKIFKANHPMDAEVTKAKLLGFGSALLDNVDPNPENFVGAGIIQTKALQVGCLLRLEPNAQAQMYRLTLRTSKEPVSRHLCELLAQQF
Chain of μ2T156-phosphorylated AP2, endogenous in RPE cells (human (endogenous in RPE)) (P63010 whole entry, chain 2 of 4, further chain, the tested form may be a part): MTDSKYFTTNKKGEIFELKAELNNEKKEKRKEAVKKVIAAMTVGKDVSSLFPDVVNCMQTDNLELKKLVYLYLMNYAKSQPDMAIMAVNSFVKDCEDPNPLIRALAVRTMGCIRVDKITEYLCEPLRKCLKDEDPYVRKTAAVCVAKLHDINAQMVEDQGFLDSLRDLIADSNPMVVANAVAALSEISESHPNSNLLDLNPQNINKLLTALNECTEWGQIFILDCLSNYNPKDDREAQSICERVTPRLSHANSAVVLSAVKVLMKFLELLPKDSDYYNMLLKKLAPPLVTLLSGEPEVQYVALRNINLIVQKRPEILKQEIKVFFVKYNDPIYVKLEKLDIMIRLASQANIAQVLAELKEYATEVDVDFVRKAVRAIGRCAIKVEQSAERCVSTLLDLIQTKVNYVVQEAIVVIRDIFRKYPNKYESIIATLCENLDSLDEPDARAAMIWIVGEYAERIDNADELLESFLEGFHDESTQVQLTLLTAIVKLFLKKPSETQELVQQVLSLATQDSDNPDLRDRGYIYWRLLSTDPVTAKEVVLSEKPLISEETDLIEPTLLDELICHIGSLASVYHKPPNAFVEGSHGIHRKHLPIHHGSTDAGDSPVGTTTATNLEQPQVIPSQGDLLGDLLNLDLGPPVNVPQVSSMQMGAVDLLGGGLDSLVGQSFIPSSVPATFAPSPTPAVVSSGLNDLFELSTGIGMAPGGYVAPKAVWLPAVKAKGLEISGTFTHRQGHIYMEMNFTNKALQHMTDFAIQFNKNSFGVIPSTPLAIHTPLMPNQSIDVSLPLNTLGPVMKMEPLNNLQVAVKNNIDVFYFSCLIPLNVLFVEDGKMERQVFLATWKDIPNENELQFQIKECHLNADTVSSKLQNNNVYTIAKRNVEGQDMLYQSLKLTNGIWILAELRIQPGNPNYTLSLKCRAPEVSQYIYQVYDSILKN
Chain of μ2T156-phosphorylated AP2, endogenous in RPE cells (human (endogenous in RPE)) (Q96CW1 whole entry, chain 3 of 4, further chain, the tested form may be a part): as the sequence (P84092 whole entry, chain 3 of 4, further chain) above
Chain of μ2T156-phosphorylated AP2, endogenous in RPE cells (human (endogenous in RPE)) (P53680 whole entry, chain 4 of 4, further chain, the tested form may be a part): as the sequence (P62743 whole entry, chain 4 of 4, further chain) above

“NECAP1 PHear domain (NECAP 1-133), wild type (from UniProt Q8NC96 1-133) (domain or fragment)” was tested, and the Kd [1] was 8 µM.

In the case of “mRuby2-Flag-GGGS-NECAP1 R90A (from UniProt Q8NC96-1 1-275) (natural protein)”, the percent reduction in binding against NECAP1-mRuby2 WT [2] is reported as 60%.

With “AP2 μ2 subunit (recombinant AP2 core / Pcore, GST-μ2 linkers, μ2 linker peptides) μ2 linker, 149-163 (from UniProt P84092) pT156 peptide” the KD [3] was “gained; reference no binding detected”.

Work on “Recombinant T156-phosphorylated AP2 core (from UniProt P18484 1-938; P63010 1-592; P84092 1-435; P62743 1-142) (complex)” yielded a fold increase in liposome-binding affinity against the unphosphorylated core [4] of 3 fold.

B1: T156-phosphorylated μ2 linker peptide (residues 149–163) (peptide)
peptide: SQITSQV[pT]GQIGWRR
notes: also called Peptide μ2linker Phos; phosphorylated μ2 peptide; source: synthetic peptide (Genscript)
For B1, the Kd [5] was 55 µM, the Kd [6] was 57 µM and the binding result [7] was “binds”. For the same molecule, the binding result [8] was “binds”, the binding result [9] was “binds” and the Kd [10] was greater than 300 µM. For the same molecule, the Kd [11] was 126 µM and the Kd [12] was 44.9 µM.
